Data from doi:10.1101/721233.

Biological target: human TrkA transmembrane domain peptide (TrkA-TM-wt) (human)
Assay: NMR structure

For “human TrkA transmembrane domain peptide (TrkA-TM-wt) (domain or fragment)”, the stoichiometry N was 2.
